Consider 17 molecules from patent US20220306751A1 (MYTHIC THERAPEUTICS, published 2022).

Sequences and labels used below:
T1: CD123 Protein, His Tag, Acro Biosciences Cat. No. ILA-H52H6 (Homo sapiens (Human), UniProt P26951 19-305)
T1 construct: Bought protein; not shown: His tag
T1 sequence: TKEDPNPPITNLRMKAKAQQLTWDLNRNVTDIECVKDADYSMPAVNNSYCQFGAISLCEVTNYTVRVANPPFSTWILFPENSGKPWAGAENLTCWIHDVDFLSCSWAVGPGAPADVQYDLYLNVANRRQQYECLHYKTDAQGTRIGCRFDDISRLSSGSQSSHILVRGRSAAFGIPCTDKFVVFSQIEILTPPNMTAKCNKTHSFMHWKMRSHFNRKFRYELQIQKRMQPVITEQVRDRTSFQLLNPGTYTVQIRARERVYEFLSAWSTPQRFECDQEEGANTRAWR

B1: MYT1288 (antibody, V domains shown)
VH: QVQLVQSGAEVKKPGASVKVSCKASGYIFTSSIMHWVRQAPGQGLEWIGYIKPYNDGTKYNEKFKGRATLTSDRSTSTAYMELSSLRSEDTAVYYCAREGGNDYYHTMDYWGQGTLVTVSS
VL: DIQMTQSPSSLSASVGDRVTITCRASQDINSYLSWFQQKPGKAPKTLIYRVNRLVDGVPSRFSGSGSGNDYTLTISSLQPEDFATYYCLQYDAFPYTFGQGTKVEIK
notes: IgG
B2: MYT2763 (antibody, V domains shown)
VH: B1 VH with Y27H, H35A, Y105H, H106D
VL: B1 VL
notes: IgG
B3: MYT2760 (antibody, V domains shown)
VH: B1 VH with Y105H, H106D, T107H
VL: B1 VL
notes: IgG
B4: MYT2755 (antibody, V domains shown)
VH: B1 VH with Y27H, H106D, T107H
VL: B1 VL
notes: IgG
B5: MYT1291 (antibody, V domains shown)
VH: B1 VH with H106D, D109H
VL: B1 VL
notes: IgG
B6: MYT2761 (antibody, V domains shown)
VH: B1 VH with Y105H, H106D, D109H
VL: B1 VL
notes: IgG
B7: MYT2764 (antibody, V domains shown)
VH: B1 VH with Y27H, H35A, H106D, T107H
VL: B1 VL
notes: IgG
B8: MYT2753 (antibody, V domains shown)
VH: B1 VH with Y27H, H35A, H106D
VL: B1 VL
notes: IgG
B9: MYT1290 (antibody, V domains shown)
VH: B1 VH with H106D, M108H
VL: B1 VL
notes: IgG
B10: MYT1292 (antibody, V domains shown)
VH: B1 VH with H106D, Y110H
VL: B1 VL
notes: IgG
B11: MYT2762 (antibody, V domains shown)
VH: B1 VH with H106D, T107H, D109H
VL: B1 VL
notes: IgG
B12: MYT2754 (antibody, V domains shown)
VH: B1 VH with Y27H, Y105H, H106D
VL: B1 VL
notes: IgG
B13: MYT2757 (antibody, V domains shown)
VH: B1 VH with H35A, Y105H, H106D
VL: B1 VL
notes: IgG
B14: MYT2773 (antibody, V domains shown)
VH: B1 VH with H106D
VL: B1 VL with R24H
notes: IgG
B15: MYT1289 (antibody, V domains shown)
VH: B1 VH with H106D, T107H
VL: B1 VL
notes: IgG
B16: MYT2756 (antibody, V domains shown)
VH: B1 VH with Y27H, H106D, D109H
VL: B1 VL
notes: IgG
B17: MYT2759 (antibody, V domains shown)
VH: B1 VH with H35A, H106D, D109H
VL: B1 VL
notes: IgG

Numbering of substitutions follows the chain as printed.

For this assay, the target named is T1, CD123 Protein, His Tag, Acro …. The assay can be described thus: BLI, IgG on anti-human Fc sensor, 50 nM CD123, pH 7.4 and pH 5.4. The text has this:
We selected IMGN632 (Heavy chain SEQ ID NO: 1, Light chain SEQ ID NO: 2) as a CD123-binding monoclonal antibody for pH engineering via histidine scanning. Briefly, CDRs in the heavy chain were identified using the methods described by Kabat et al (Kabat et al. (1992) Sequences of Proteins of Immunological Interest, DIANE publishing) and IMGT (Lefranc M P (1999) “The IMGT unique numbering for Immunoglobulins, T cell receptors and Ig-like domains” The Immunologist 7, 132-136), and for each CDR, residues falling under either or both Kabat and IMGT CDR definitions were called as CDR residues. To generate pH-dependent sequence variants, individual amino acid residues within the heavy chain CDRs were systematically substituted with a histidine, one at a time (MYT1252-MYT1292). In cases where the starting CDR residue was a histidine, it was mutated to an alanine. Antibody variants with only one histidine or alanine mutation in a heavy chain CDR were generated by co-transfection of Expi293 cells with a) one heavy chain sequence variant, and b) the corresponding starting ABPC light chain using methods known to the art. After allowing for four days of protein expression, cell culture supernatants were collected, quantified by SDS-PAGE analysis (FIG. 1), and the pH dependence of the variant was evaluated using biolayer interferometry (BLI) on an Octet RED 384 instrument. For constructs MYT1252, MYT1254-MYT1287, and MYT1289-1292, 104, of cell culture supernatant was diluted into 1904, of 1× PBST pH 7.4. For MYT1253 and MYT1288 254, and 504, of cell culture supernatant was diluted into 1754, and 1504, respectively. […] The resulting diluted supernatants were then captured on an anti-human Fc sensor (Forte Bio). A baseline was established using 1× PBST (50 mM Potassium Phosphate Buffer+150 mM NaCl+0.05% Tween 20) pH 7.4, and the sensor was associated with 50 nM of CD123 (CD123 Protein, His Tag, Acro Biosciences Cat. No. ILA-H52H6, Lot No. 1741d-89CF1-KB) in 1×PBST pH 7.4 for 120 sec to generate an association curve. In the dissociation phase, the antibody-antigen complex on the sensor was exposed to 1× PBST pH 7.4 for 300-600 sec. Baseline, association, and dissociation were repeated using 1×PBST pH 5.4 throughout in a separate condition.
(In general: Biolayer interferometry detects binding as a change in optical thickness at a sensor tip.)
In the case of B1, the binding result is listed as “binds”. Consider B2, for which the binding result was “binds”.

For the molecule B3, the binding result is “binds”. The value for B4 was “binds”; that for B5 was “binds”; that for B6 was “binds”. Regarding B7, the binding result was “binds”.

For the molecule B8, the binding result is recorded as “binds”.

As to B9, the binding result is “binds”. The value for B10 was “binds”; that for B11 was “binds”. The value for B12 was “binds”; that for B13 was “binds”. Regarding B14, the binding result was “binds”. Turning to B15, the binding result is recorded as “binds”. As for B16, the binding result is “binds”. For the molecule B17, the binding result was “binds”.
